{
  "source": "patent US20240084030A1",
  "about": "(University of California, published 2024)",
  "key": {"CDCP1": {"biological_target": "T1, CDCP1 (UniProt Q9H5V8 30-836, limits assumed)", "T1 construct": "whole, on cells; Endogenous protein on HT-1376 cells; also called cell surface CDCP1", "T1 sequence (looked up)": "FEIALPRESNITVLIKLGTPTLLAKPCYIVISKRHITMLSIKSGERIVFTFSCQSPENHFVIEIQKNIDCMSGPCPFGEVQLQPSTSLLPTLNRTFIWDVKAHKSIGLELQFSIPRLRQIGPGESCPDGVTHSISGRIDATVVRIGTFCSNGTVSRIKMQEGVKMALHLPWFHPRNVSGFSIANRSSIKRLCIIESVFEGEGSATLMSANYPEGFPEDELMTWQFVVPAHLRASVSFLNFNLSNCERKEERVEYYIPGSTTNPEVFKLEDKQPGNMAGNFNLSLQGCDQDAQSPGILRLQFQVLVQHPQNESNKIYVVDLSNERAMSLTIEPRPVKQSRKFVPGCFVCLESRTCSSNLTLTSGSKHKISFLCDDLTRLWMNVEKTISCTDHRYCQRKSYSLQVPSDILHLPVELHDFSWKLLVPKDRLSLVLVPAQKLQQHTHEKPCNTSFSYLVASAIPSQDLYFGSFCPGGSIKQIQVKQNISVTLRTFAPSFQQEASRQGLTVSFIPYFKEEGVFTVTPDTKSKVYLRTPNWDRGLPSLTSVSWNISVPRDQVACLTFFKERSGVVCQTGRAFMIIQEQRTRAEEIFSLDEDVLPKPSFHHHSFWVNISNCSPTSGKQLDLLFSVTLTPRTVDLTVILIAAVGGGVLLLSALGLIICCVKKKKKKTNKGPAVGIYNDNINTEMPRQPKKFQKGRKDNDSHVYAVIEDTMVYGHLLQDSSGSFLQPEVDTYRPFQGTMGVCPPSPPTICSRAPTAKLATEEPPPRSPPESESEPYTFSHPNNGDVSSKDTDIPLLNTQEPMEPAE", "experiment": "statement in Example 2; no direct binding assay, only degradation on HT-1376 cells", "experimental": "(§1) After incubation at 37° C. for the designated time point, cells were washed with phosphate-buffered saline (PBS), lifted with versene, and harvested by centrifugation at 300×g for 5 min at 4° C. Samples were then tested by western blotting or flow cytometry to quantify protein levels.\n(§2) Western blotting: Cell pellets were lysed with 1×RIPA buffer containing cOmplete mini protease inhibitor cocktail (Sigma-Aldrich) at 4° C. for 40 min. Lysates were centrifuged at 16,000×g for 10 min at 4° C. and protein concentrations were normalized using BCA assay (Pierce). 4×NuPAGE LDS sample buffer (Invitrogen) and 2-mercaptoethanol (BME) was added to the lysates and boiled for 10 min. Equal amounts of lysates were loaded onto a 4-12% Bis-Tris gel and ran at 200V for 37 min. The gel was incubated in 20% ethanol for 10 min and transferred onto a polyvinylidene difluoride (PVDF) membrane. The membrane was blocked in PBS with 0.1% Tween-20+5% bovine serum albumin (BSA) for 30 min at room temperature with gentle shaking. Membranes were incubated overnight with primary antibodies at respective dilutions at 4° C. with gentle shaking in PBS+0.2% Tween-20+5% BSA. […] Band intensities were quantified using Image Studio Software (LI-COR). […]"}, "Nectin-4": {"biological_target": "T2, Nectin-4 (UniProt Q96NY8 32-510, limits assumed)", "T2 construct": "whole, on cells; Endogenous receptor on HT-1376 cells", "T2 sequence (looked up)": "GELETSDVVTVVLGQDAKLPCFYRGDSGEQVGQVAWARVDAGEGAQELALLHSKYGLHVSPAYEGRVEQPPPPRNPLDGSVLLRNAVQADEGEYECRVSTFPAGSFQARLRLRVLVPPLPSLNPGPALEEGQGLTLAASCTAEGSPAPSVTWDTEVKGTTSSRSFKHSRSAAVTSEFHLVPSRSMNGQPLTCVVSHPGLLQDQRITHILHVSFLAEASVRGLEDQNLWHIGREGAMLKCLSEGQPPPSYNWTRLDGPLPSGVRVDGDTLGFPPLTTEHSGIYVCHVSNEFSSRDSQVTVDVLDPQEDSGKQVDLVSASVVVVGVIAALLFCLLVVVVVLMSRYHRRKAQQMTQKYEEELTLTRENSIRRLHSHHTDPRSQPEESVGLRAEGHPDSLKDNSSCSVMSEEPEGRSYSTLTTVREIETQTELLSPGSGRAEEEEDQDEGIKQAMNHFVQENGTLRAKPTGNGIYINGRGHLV", "experiment": "statement in Example 2; no direct binding assay, only degradation on HT-1376 cells", "experimental": "as §1, §2"}},
  "data": [
    {"binder": "Enfortumab-4A06 bispecific antibody (bispecific antibody, It has four different chains; also called Enfortumab (Nectin-4)-4A06 (CDCP1); Enfortumab-4A06 antibody) heavy 1: not shown light 1: DIQMTQSPSSVSASVGDRVTITCRASQGISGWLAWYQQKPGKAPKFLIYAASTLQSGVPSRFSGSGSGTDFTLTISSLQPEDFATYYCQQANSFPPTFGGGTKVEIKRTVAAPSVFIFPPSDEQLKSGTASVVCLLNNFYPREAKVQWKVDNALQSGNSQESVTEQDSKDSTYSLSSTLTLSKADYEKHKVYACEVTHQGLSSPVTKSFNRGEC heavy 2: EISEVQLVESGGGLVQPGGSLRLSCAASGFNLSYYYIHWVRQAPGKGLEWVASIYSSSSYTSYADSVKGRFTISADTSKNTAYLQMNSLRAEDTAVYYCARAYYGFDYWGQGTLVTVSSASTKGPSVFPLAPSSKSTSGGTAALGCLVKDYFPEPVTVSWNSGALTSGVHTFPAVLQSSGLYSLSSVVTVPSSSLGTQTYICNVNHKPSNTKVDKKVEPKSCDKTHTCPPCPAPELLGGPSVFLFPPKPKDTLMISRTPEVTCVVVDVSHEDPEVKFNWYVDGVEVHNAKTKPREEQYNSTYRVVSVLTVLHQDWLNGKEYKCKVSNKALPAPIEKTISKAKGQPREPQVYTLPPIRELMTSNQVSLSCAVKGFYPSDIAVEWESNGQPENNYKTTPPVLDSDGSFFLVSKLTVDKSRWQQGNVFSCSVMHEALHNHYTQKSLSLSPGK light 2: DIQMTQSPSSLSASVGDRVTITCRASQSVSSAVAWYQQKPGKAPKLLIYSASSLYSGVPSRFSGSRSGTDFTLTISSLQPEDFATYYCQQSYYYYPITFGQGTKVEIKRTVAAPSVFIFPPSDSQLKSGTASVVCLLNNFYPREAKVQWKVDNALQSGNSQESVTEQDSKDSTYSLSSTLTLSKADYEKHKVYACEVTHQGLSSPVTKSFNRGECGGSDYKDDDDK", "values": [
      {"measurement": "binding result", "setting": "CDCP1", "value": "binds"},
      {"measurement": "binding result", "setting": "Nectin-4", "value": "binds"}
    ]}
  ]
}
